Measured values reported in the Human Domainome abundance scans (Beltran et al. 2025).

B1: LIM and senescent cell antigen-like-containing domain protein 2, residues 13 to 71; numbered along this chain, Q7Z4I7 (parent)
chain: AVCQRCQARFSPAERIVNSNGELYHEHCFVCAQCFRPFPEGLFYEFEGRKYCEHDFQML

Variants of: B1
Assay: abundance fitness (aPCA) (normalised: wild type 0, dead -1); higher = more abundant; growth selection in yeast, the domain comes from the species named
Conditions: Homo sapiens

Abundance fitness, by site and new letter:
Y44: P -0.941; Q -0.019; L -0.247; K -0.03; R -0.033; C -0.009; F 0.002; T -0.253; G -0.324; S -0.342; N 0.088; W -0.145; E -0.086; I -0.046; M -0.114; H 0.024; D -0.259
E45: L -0.039; V -0.061
G48: C -0.224; A -0.201; Q -0.238; W -0.838; I -0.789; M -0.398; N 0.114; K -0.067; S -0.021; P -0.686; H -0.411; R -0.083; Y -0.451; D -0.03; T -0.15; E -0.062; V -0.775
C52: N -0.269; T -0.952; D -0.622; M -0.673; E -0.719; P -0.949; I -0.918; Q -0.597; A -1; S -0.798; V -0.93; L -0.817; Y -0.49; H -0.486; G -0.731; F -0.882; R -0.839; W -1.14
Y51: Q -0.785; P -0.729; W -0.426; L 0.186; E -0.604; D -0.452; N -0.877; K -0.276; F -0.053; T -0.702; V 0.014; M 0.088; C -0.298; G -0.922; A -0.754; H -0.743; I -0.283
R49: Y -0.328; K 0.029; L -0.169; I -0.101; N -0.482; C -0.011; E -0.205; M -0.102; V -0.123; A -0.057; F -0.245; T -0.066; G -0.257; D -0.413
F46: Q -0.272; C -0.127; E -0.286; D -0.217; M -0.241; L 0.029; W 0.014; A -0.039; R -0.271; P -0.902; V -0.05; K -0.173; G -0.465; H 0.114; N -0.202; I -0.446
E47: K -0.274; D -0.083; S -0.364; L -0.243; Y -0.453; P -0.773; H 0.022; N -0.335; Q -0.204; F -0.585; M -0.222; W -0.49; V -0.138; G -0.062; A -0.129; C -0.247; T -0.434; R -0.154
E53: V -0.39; G -0.25; A -0.216; W -0.186; P -0.359; L -0.207; D 0.169; M -0.286; N 0.01; T -0.235; H 0.061; R -0.027; F -0.064; K -0.21; I -0.147; C -0.38
H54: I 0.14; N 0.137; S 0.094; K 0.117; A 0.064; G 0.027; L -0.017; C 0.074; P 0.034; F -0.01; E 0.189; V 0.036; Q 0.045; T 0.235; R 0.108
K50: L 0.005; W -0.191; N 0.185; R -0.05; S -0.216; V -0.091; E -0.263; G -0.212; A -0.2; Y -0.104; P -0.177; Q -0.032; H -0.225; D -0.473; T -0.047; M 0.168; F -0.3
